Measured values: patent publication US20070128627A1 (US Dept. of Health and Human Services, published 2007)

Columns and labels:
[1] = target: transcription intermediary factor-2 (TIF2), full length (human, UniProt Q15596 1-1464); assay: cell-based or functional assay
[2] = target: T1, STAMP C-terminal fragment (834C), in vitro translated (human, UniProt Q6EMB2 838-1281, [35S]methionine labeled); assay: GST pulldown, autoradiography (FIG. 7A)
T1 sequence: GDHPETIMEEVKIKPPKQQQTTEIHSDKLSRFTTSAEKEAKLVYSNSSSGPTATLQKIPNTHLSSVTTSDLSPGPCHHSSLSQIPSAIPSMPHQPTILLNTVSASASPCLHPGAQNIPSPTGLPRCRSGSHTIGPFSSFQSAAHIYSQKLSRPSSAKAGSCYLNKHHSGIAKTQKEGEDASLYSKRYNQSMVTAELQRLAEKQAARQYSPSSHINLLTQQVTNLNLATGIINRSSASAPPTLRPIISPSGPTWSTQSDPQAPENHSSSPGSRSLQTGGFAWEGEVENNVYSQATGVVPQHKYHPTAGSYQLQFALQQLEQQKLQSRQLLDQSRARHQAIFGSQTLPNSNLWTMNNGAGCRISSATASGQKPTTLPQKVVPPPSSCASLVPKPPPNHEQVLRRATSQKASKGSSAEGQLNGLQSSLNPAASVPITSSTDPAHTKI
Description: (§1) The mixture was centrifuged (12,000×g), the supernatant was discarded, and the pellet was washed with phosphate-buffered saline (3×1 ml). Each 20-μl sample of immobilized GST or GST-chimera was then incubated overnight with 10 μl of ³⁵S-labeled in vitro translation product. The matrix was washed with phosphate-buffered saline (4×1 ml). The immobilized proteins were removed from the beads by heating at 90° C. for 5 min in 20 μl of 2×SDS loading buffer. The proteins were separated on 8-10% SDS-PAGE gels and detected by radio-autoradiography.

[3] = target: T2, STAMP amino terminal fragment (N623), in vitro translated (human, UniProt Q6EMB2 5-627, [35S]methionine labeled); assay: GST pulldown, autoradiography (FIG. 7A)
T2 sequence: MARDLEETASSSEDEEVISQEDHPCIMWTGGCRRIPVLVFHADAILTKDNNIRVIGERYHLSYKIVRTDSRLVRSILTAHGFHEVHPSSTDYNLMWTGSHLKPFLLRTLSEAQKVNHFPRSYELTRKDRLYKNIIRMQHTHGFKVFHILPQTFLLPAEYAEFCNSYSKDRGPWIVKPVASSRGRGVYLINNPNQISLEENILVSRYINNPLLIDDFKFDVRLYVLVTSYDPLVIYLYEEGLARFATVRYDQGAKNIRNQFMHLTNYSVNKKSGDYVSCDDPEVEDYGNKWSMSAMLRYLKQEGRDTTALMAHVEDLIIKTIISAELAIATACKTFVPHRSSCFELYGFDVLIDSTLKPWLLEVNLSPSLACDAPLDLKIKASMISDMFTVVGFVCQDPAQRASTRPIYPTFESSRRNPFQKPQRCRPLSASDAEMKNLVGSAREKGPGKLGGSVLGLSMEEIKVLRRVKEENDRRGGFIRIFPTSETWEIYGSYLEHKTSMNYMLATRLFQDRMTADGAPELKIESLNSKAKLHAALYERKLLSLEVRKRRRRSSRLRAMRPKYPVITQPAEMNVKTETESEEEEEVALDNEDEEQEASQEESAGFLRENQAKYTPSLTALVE
Description: as §1

GAL/STAMP(623-834) = target: T3, GAL/STAMP(623-834) (human); assay: mammalian two-hybrid in CV-1 cells
T3 construct: domain: GAL-DBD; Expressed in CV-1 cells for the mammalian two-hybrid assay; also called Gal/6-6CL1

GAL/STAMP(N834) = target: T4, GAL/STAMP(N834) (human); assay: mammalian two-hybrid ±1 µM Dex (FIG. 6B)
T4 construct: domain: GAL-DBD; Mammalian two-hybrid construct; also called GAL/N834

GAL/STAMP(834C) = target: T5, GAL/STAMP(834C) (human, UniProt P04386 1-147 (Saccharomyces cerevisiae entry)); assay: mammalian two-hybrid (data not shown)
T5 construct: domain: GAL-DBD; Mammalian two-hybrid construct; also called GAL fused to STAMP834C

B1: full length STAMP (SRC-1 and TIF2 Associated Modulatory Protein) (other)
chain: MARDLEETASSSEDEEVISQEDHPCIMWTGGCRRIPVLVFHADAILTKDNNIRVIGERYHLSYKIVRTDSRLVRSILTAHGFHEVHPSSTDYNLMWTGSHLKPFLLRTLSEAQKVNHFPRSYELTRKDRLYKNIIRMQHTHGFKVFHILPQTFLLPAEYAEFCNSYSKDRGPWIVKPVASSRGRGVYLINNPNQISLEENILVSRYINNPLLIDDFKFDVRLYVLVTSYDPLVIYLYEEGLARFATVRYDQGAKNIRNQFMHLTNYSVNKKSGDYVSCDDPEVEDYGNKWSMSAMLRYLKQEGRDTTALMAHVEDLIIKTIISAELAIATACKTFVPHRSSCFELYGFDVLIDSTLKPWLLEVNLSPSLACDAPLDLKIKASMISDMFTVVGFVCQDPAQRASTRPIYPTFESSRRNPFQKPQRCRPLSASDAEMKNLVGSAREKGPGKLGGSVLGLSMEEIKVLRRVKEENDRRGGFIRIFPTSETWEIYGSYLEHKTSMNYMLATRLFQDRMTADGAPELKIESLNSKAKLHAALYERKLLSLEVRKRRRRSSRLRAMRPKYPVITQPAEMNVKTETESEEEEEVALDNEDEEQEASQEESAGFLRENQAKYTPSLTALVENTPKENSMKVREWNNKGGHCCKLETQELEPKFNLMQILQDNGNLSKMQARIAFSAYLQHVQIRLMKDSGGQTFSASWAAKEDEQMELVVRFLKRASNNLQHSLRMVLPSRRLALLERRRILAHQLGDFIIVYNKETEQMAEKKSKKKVEEEEEDGVNMENFQEFIRQASEAELEEVLTFYTQKNKSASVFLGTHSKISKNNNNYSDSGAKGDHPETIMEEVKIKPPKQQQTTEIHSDKLSRFTTSAEKEAKLVYSNSSSGPTATLQKIPNTHLSSVTTSDLSPGPCHHSSLSQIPSAIPSMPHQPTILLNTVSASASPCLHPGAQNIPSPTGLPRCRSGSHTIGPFSSFQSAAHIYSQKLSRPSSAKAGSCYLNKHHSGIAKTQKEGEDASLYSKRYNQSMVTAELQRLAEKQAARQYSPSSHINLLTQQVTNLNLATGIINRSSASAPPTLRPIISPSGPTWSTQSDPQAPENHSSSPGSRSLQTGGFAWEGEVENNVYSQATGVVPQHKYHPTAGSYQLQFALQQLEQQKLQSRQLLDQSRARHQAIFGSQTLPNSNLWTMNNGAGCRISSATASGQKPTTLPQKVVPPPSSCASLVPKPPPNHEQVLRRATSQKASKGSSAEGQLNGLQSSLNPAASVPITSSTDPAHTKI
[1]
  fold repression by Dex of the PMA-induced AP-1/Luc reporter in U2OS.rGR cells (STAMP added, no TIF2 added): 16 fold
  fold repression by Dex of the PMA-induced AP-1/Luc reporter in U2OS.rGR cells (STAMP plus TIF2 added): ~31 fold

B2: GST/TIF2.4 (other)
chain: ERADGQSRLHDSKGQTKLLQLLTTKSDQMEPSPLASSLSDTNKDSTGSLPGSGSTHGTSLKEKHKILHRLLQDSSSPVDLAKLTAEATGKDLSQESSSTAPGSEVTIKQEPVSPKKKENALLRYLLDKDDTKDIGLPEITPKLERLDSKTDPASNTKLIAMKTEKEEMSFEPGDQPGSELDNLEEILDDLQNSQLPQLFPDTRPGAPAGSVDKQAIINDLMQLTAENSPVTPVGAQKTALRISQSTFNNPRPGQLGRLLPNQNLPLDITLQSPTGAGPFPPIRNSSPYSVIPQPGMMGNQGMIGNQGNLGNSSTGMIGNSASRPTMPSGEWAPQSSAVRVTCAATTSAMNRPVQGGMIRNPAASIPMRPSSQPGQRQTLQSQVMNIG
notes: Bacterially expressed, immobilized on glutathione-Sepharose beads; The text gives no limits for TIF2.4, so the whole TIF2 entry is named; not shown: glutathione S-transferase (GST) of a pGEX plasmid
[2]
  binding result: no binding
[3]
  binding result: no binding

B3: VP16/TIF2(1140C) (other)
chain: QAQMAQGSYSPMQDPNFHTMGQRPSYATLRMQPRPGLRPTGLVQNQPNQLRLQLQHRLQAQQNRQPLMNQISNVSNVNLTLRPGVPTQAPINAQMLAQRQREILNQHLRQRQMHQQQQVQQRTLMMRGQGLNMTPSMVAPSGMPATMSNPRIPQANAQQFPFPPNYGISQQPDPGFTGATTPQSPLMSPRMAHTQSPMMQQSQANPAYQAPSDINGWAQGNMGGNSMFSQQSPPHFGQQANTSMYSNNMNINVSMATNTGGMSSMNQMTGQISMTSVTSVPTSGLSSMGPEQVNDPALRGGNLFPNQLPGMDMIKQEGDTTRKYC
GAL/STAMP(623-834)
  binding result: no binding

B4: VP16/GR (receptor)
chain: MDSKESLAPPGRDEVPGSLLGQGRGSVMDFYKSLRGGATVKVSASSPSVAAASQADSKQQRILLDFSKGSTSNVQQRQQQQQQQQQQQQQQQQQQQPDLSKAVSLSMGLYMGETETKVMGNDLGYPQQGQLGLSSGETDFRLLEESIANLNRSTSVPENPKSSTSATGCATPTEKEFPKTHSDASSEQQNRKSQTGTNGGSVKLYPTDQSTFDLLKDLEFSAGSPSKDTNESPWRSDLLIDENLLSPLAGEDDPFLLEGNTNEDCKPLILPDTKPKIKDTGDTILSSPSSVALPQVKTEKDDFIELCTPGVIKQEKLGPVYCQASFSGTNIIGNKMSAISVHGVSTSGGQMYHYDMNTASLSQQQDQKPVFNVIPPIPVGSENWNRCQGSGEDSLTSLGALNFPGRSVFSNGYSSPGMRPDVSSPPSSSSAATGPPPKLCLVCSDEASGCHYGVLTCGSCKVFFKRAVEGQHNYLCAGRNDCIIDKIRRKNCPACRYRKCLQAGMNLEARKTKKKIKGIQQATAGVSQDTSENPNKTIVPAALPQLTPTLVSLLEVIEPEVLYAGYDSSVPDSAWRIMTTLNMLGGRQVIAAVKWAKAILGLRNLHLDDQMTLLQYSWMFLMAFALGWRSYRQSSGNLLCFAPDLIINEQRMSLPCMYDQCKHMLFVSSELQRLQVSYEEYLCMKTLLLLSSVPKEGLKSQELFDEIRMTYIKELGKAIVKREGNSSQNWQRFYQLTKLLDSMHEVVENLLTYCFQTFLDKTMSIEFPEMLAEIITNQIPKYSNGNIKKLLFHQK
notes: Assayed with and without 1 µM Dex
GAL/STAMP(N834)
  binding result: no binding

B5: GR N-terminal half (N523) (receptor, UniProt P06536 1-523, looked up, not shown: large carriers)
chain: MDSKESLAPPGRDEVPGSLLGQGRGSVMDFYKSLRGGATVKVSASSPSVAAASQADSKQQRILLDFSKGSTSNVQQRQQQQQQQQQQQQQQQQQQQPDLSKAVSLSMGLYMGETETKVMGNDLGYPQQGQLGLSSGETDFRLLEESIANLNRSTSVPENPKSSTSATGCATPTEKEFPKTHSDASSEQQNRKSQTGTNGGSVKLYPTDQSTFDLLKDLEFSAGSPSKDTNESPWRSDLLIDENLLSPLAGEDDPFLLEGNTNEDCKPLILPDTKPKIKDTGDTILSSPSSVALPQVKTEKDDFIELCTPGVIKQEKLGPVYCQASFSGTNIIGNKMSAISVHGVSTSGGQMYHYDMNTASLSQQQDQKPVFNVIPPIPVGSENWNRCQGSGEDSLTSLGALNFPGRSVFSNGYSSPGMRPDVSSPPSSSSAATGPPPKLCLVCSDEASGCHYGVLTCGSCKVFFKRAVEGQHNYLCAGRNDCIIDKIRRKNCPACRYRKCLQAGMNLEARKTKKKIKGIQQAT
notes: domain: N-terminal half (N523)
GAL/STAMP(834C)
  binding result: no binding

B6: GR C-terminal half (407C) (receptor, UniProt P06536 407-795, looked up, not shown: large carriers)
chain: SVFSNGYSSPGMRPDVSSPPSSSSAATGPPPKLCLVCSDEASGCHYGVLTCGSCKVFFKRAVEGQHNYLCAGRNDCIIDKIRRKNCPACRYRKCLQAGMNLEARKTKKKIKGIQQATAGVSQDTSENPNKTIVPAALPQLTPTLVSLLEVIEPEVLYAGYDSSVPDSAWRIMTTLNMLGGRQVIAAVKWAKAILGLRNLHLDDQMTLLQYSWMFLMAFALGWRSYRQSSGNLLCFAPDLIINEQRMSLPCMYDQCKHMLFVSSELQRLQVSYEEYLCMKTLLLLSSVPKEGLKSQELFDEIRMTYIKELGKAIVKREGNSSQNWQRFYQLTKLLDSMHEVVENLLTYCFQTFLDKTMSIEFPEMLAEIITNQIPKYSNGNIKKLLFHQK
notes: also called GR407C
GAL/STAMP(834C)
  binding result: no binding
